Sequences and labels used below:
B1: TPR t1 (parent)
chain: GACCAAUCUGCCCUCAGAGCUCGAGAACAUCUUCGGAUGCAGAGGAGGCAGGCUUCGGUGGCGCGAUAGCGCCAACGUCCUCAACCUCCAAUGCAUCCCACCACAUGAUGAUGCCUGAAGAGCCUUGGUUUUUUG

The data set covers variants of B1. Briefly: polymerase ribozyme fitness, log enrichment relative to wild type (log ratio); higher = more active; in vitro selection for triplet polymerase activity. The method in brief:
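Libraries of mutants in each subunit of a heterodimeric triplet polymerase ribozyme were generated by PCR and transcribed. In triplicate, each went through one in vitro selection round: annealing with biotinylated primer, partner subunit and triplets; frozen incubation at −7 °C; gel excision of extended constructs; streptavidin-bead capture; RT-PCR. Fitness, taken from Illumina sequencing of input and output libraries, is the logarithm of a genotype's enrichment over wild-type enrichment, averaged across replicates with inverse-variance weights. The logarithm is base 2, and genotypes needed ≥10 input reads and ≥1 read per output to be kept.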
On to C88U U112A, for which the “polymerase ribozyme fitness (log ratio)” value stood at 0.961. Then C20U C56A G71U A118U G120U, with -2.27. Then G44A A119G C123A, with 0.608; and C3A A5C C115A, with 1.15; and A27C C82U C124A, with -0.986. Regarding G58U G60A G77U, the “polymerase ribozyme fitness (log ratio)” value amounted to 0.541. Turning to A6G A121U U125G, the “polymerase ribozyme fitness (log ratio)” value was -0.777.

Turning to A18C C72U, the “polymerase ribozyme fitness (log ratio)” value is -2.49.

As for U7C C70U, the “polymerase ribozyme fitness (log ratio)” value is -1.31. As for C88U C101U, the “polymerase ribozyme fitness (log ratio)” value is -0.588.

Regarding A50C C72U G77U C99A U116A G120C C123U, the “polymerase ribozyme fitness (log ratio)” value is -8.09. C70A A83G C85U G113U G117U: the “polymerase ribozyme fitness (log ratio)” value was -6.04. U38A C102U: the “polymerase ribozyme fitness (log ratio)” value was -4.16. In the case of C62U C80G, the “polymerase ribozyme fitness (log ratio)” value was -6.35. With U9G G69U C73U U106C, the “polymerase ribozyme fitness (log ratio)” value was 0.373. U9A C20U A43U A50C U87A: the “polymerase ribozyme fitness (log ratio)” value is -1.81.

With U78A, the “polymerase ribozyme fitness (log ratio)” value is -0.254. With C13A A29G C53U, the “polymerase ribozyme fitness (log ratio)” value is -2.88. Under A27G C49U A91C stands -4.72.

For the variant A27G A41U C64U, the “polymerase ribozyme fitness (log ratio)” value was -3.32.

C13A A100U U131G: the “polymerase ribozyme fitness (log ratio)” value is -2.21.

On to C34G A46U, for which the “polymerase ribozyme fitness (log ratio)” value was -6.06. Under G127A G128U stands -2.41.

In the case of U7A G25A G42U A50U G61A C85G A90C C123U U133G, the “polymerase ribozyme fitness (log ratio)” value is -8.16. Then G57U G77U G122A, with -1.42. Turning to C8U C11U A50U, the “polymerase ribozyme fitness (log ratio)” value was -1.25. Then A50U C56U, with -0.861. Turning to U54A C64U A105U, the “polymerase ribozyme fitness (log ratio)” value is -2.69.

Turning to C40U A46U G47A C53G A66C G117C, the “polymerase ribozyme fitness (log ratio)” value was -7.17.

As for A41C C72A, the “polymerase ribozyme fitness (log ratio)” value was -2.08. Turning to A2G U14C C70U, the “polymerase ribozyme fitness (log ratio)” value is -2.68. Under A46C U87A G110C stands -3.24; under G36U G39C C124G, -0.0867.

Turning to C53G C56A, the “polymerase ribozyme fitness (log ratio)” value is -0.204. Take C56U C72U C80U A90C: the “polymerase ribozyme fitness (log ratio)” value is -2.11.

With G39A A50C C73A C79A C82G, the “polymerase ribozyme fitness (log ratio)” value was -0.859. G44C C49U C88A C124U: the “polymerase ribozyme fitness (log ratio)” value was -1.53. Under C34G G107A stands -7.98; under U38G G135U, -2.04; under U96C G110C, -4. In the case of U14G G60C C70U, the “polymerase ribozyme fitness (log ratio)” value was -3.06. Under C12U U14A stands -2.23. Under C40G G69A A84C stands -3.83; under C22G G69A, -3.64; under C12A C40U A91C, -3.09. Then G61A C97A C124U, with -3.09; and A6C C15U G63C, with -2.01.

As to C8G C12G U55G G61U, the “polymerase ribozyme fitness (log ratio)” value came to 0.571. For C13U G69C U116C G120C, the “polymerase ribozyme fitness (log ratio)” value is -0.88. With A43G G113C, the “polymerase ribozyme fitness (log ratio)” value was -3. Under A50U C85U G120C U130A stands -0.66; under C28U A111U, -3.7. Then G23A C56U G110C, with -5.74; and G48A G69U C72U U126G G128A U132A, with -2.53; and C79U G93U, with -1.77.

With C12A A18G C40U, the “polymerase ribozyme fitness (log ratio)” value was -4.84. Under C15G C56G G57C C72G C104U U131C stands -4.86. Under U7C U21C A83G G120A stands 0.428. Then U7A C12U G113C, with -2.14; and U112A G113A, with -0.782; and G39U C85U, with -0.997. For the variant A2U U21A C49U, the “polymerase ribozyme fitness (log ratio)” value is -4.09. Turning to C104A G120C G127A U129A, the “polymerase ribozyme fitness (log ratio)” value is -2.25.

Turning to G44U A111U, the “polymerase ribozyme fitness (log ratio)” value was -4.9. Regarding U9A C80U, the “polymerase ribozyme fitness (log ratio)” value amounted to 0.294. On to U38G C80A C88U, for which the “polymerase ribozyme fitness (log ratio)” value is -4.45. Consider G52C C72G C104U, for which the “polymerase ribozyme fitness (log ratio)” value was -0.739. In the case of C13A G51A, the “polymerase ribozyme fitness (log ratio)” value is -4.85.

On to G61C A111G U116G C124A U131G, for which the “polymerase ribozyme fitness (log ratio)” value is -3.87. Then C56G U92C, with -1.23. In the case of C12A A26G A121C, the “polymerase ribozyme fitness (log ratio)” value is -1.17.

A27G C85A: the “polymerase ribozyme fitness (log ratio)” value was -3.2. Under C11G C28G G58U stands -2.76; under U7G C15G C49G U112G, -1.33. Then C40A G44A U92G A95U C115U, with -6.45; and C20U U32C G71A U112C, with -1.25; and U54A C98G U112C, with -3.86. Under C12G G110U U130A stands -1.34.

As for A27C U87A A91G, the “polymerase ribozyme fitness (log ratio)” value was -4.73.

C15A G57A C94U: the “polymerase ribozyme fitness (log ratio)” value was -2.78. Then C94U U131A, with -0.362; and U21G C123G, with 0.364; and A18U C114A, with -2.02. For the variant G61A A91C C94G A105C U109A A119C, the “polymerase ribozyme fitness (log ratio)” value is -7.38.

The values above are taken from the RNAGym collection of RNA variant scans (doi:10.1073/pnas.2313332121).
